These results are taken from patent US20160200789A1, “IL4 CONJUGATED TO ANTIBODIES AGAINST EXTRACELLULAR MATRIX COMPONENTS” (PHILOGEN S.P.A., priority 2013, published 2016).

In assay [1] the test system is imiquimod (IMQ)-induced ear inflammation in C57BL/6 mice. Put plainly: IMQ-induced inflammation model of psoriasis. Format: in vivo, mouse. The settings on record: day 13. The protocol: C57BL/6 mice (Charles River, Germany) were treated on each side of each ear with 5 mg Aldara cream (containing 0.25 mg Imiquimod). The treatment schedule is illustrated in FIG. 11A. The Aldara cream was applied every day for 5 days (on day 1, 2, 3, 4 5 and […]: each application is illustrated by an asterisk in FIG. 11A). Ear thickness was measured with a caliper before the application of the cream. […] Treatment was repeated on day 9 and 11 (each treatment event is illustrated by an arrow in FIG. 11A).

The test system of assay [2] is CHS-induced ear inflammation in K14-VEGF-A mice. As to the kind of experiment: Contact hypersensitivity-induced ear inflammation in K14-VEGF-A mice. The settings on record: day 15. The class given is in vivo, mouse. From the text:
A delayed-type hypersensitivity reaction was induced in the ear skin of female FVB mice that overexpress VEGF-A in the epidermis under control of the human keratin 14 promoter as previously described (Detmar et al., 1998; Kunstfeld et al., 2004; Xia et al., 2003). Heterozygous VEGF-A transgenic mice with no pre-existing inflammatory lesions were sensitized by topical application of a 2% oxazolone (4-ethoxymethylene-2-phenyl-2-oxazoline-5-one; Sigma) solution in acetone/olive oil (4:1 vol/vol) to the shaved abdomen (50 μl) and each paw (5 μl). Five days after sensitization, the ears were challenged by topical application of 20 μl of a 1% oxazolone solution. Therapy was started on day 7 and repeated at day 9, 11 and 13. […] Ear thickness was measured every other day and at day 15, mice were sacrificed and ear draining lymph nodes were weighted. The timeline for this experiment is illustrated in FIG. 13A. Each treatment event is indicated by an arrow.

The target in the next assay is T1, TNF (Homo sapiens, UniProt P01375).
T1 construct: host or cells: LM fibroblasts (mouse) as indicator cells
Put plainly: Inhibition of TNF-mediated killing of LM fibroblasts. The class given is cell-based, mouse. The source says:
The murine fusion protein muTNFR-Fc (extracellular part of the murine p75-TNF receptor appended at the N-terminus of a murine IgG1 Fc portion, containing the hinge region) was expressed by stable transfection in CHO cells, according to the supplier's protocol. The fusion protein was purified from the culture supernatant by protein A chromatography, yielding a preparation which was pure in SDS-PAGE analysis and size exclusion chromatography (see FIGS. 2A and B). The biological activity of muTNFR-Fc was tested by inhibition of TNF-mediated killing of LM fibroblasts (see FIG. 2C). TNF inhibitors such as Enbrel™ and Humeira™ represent the standard of care in rheumatoid arthritis patients. muTNFR-Fc is a murine version of a TNF inhibitor for use in mouse models of the disease.

The target in assay [3] is T2, EDA in the pancreas of diabetic mice (Mus musculus, UniProt P11276).
T2 construct: from tissue; host or cells: pancreas of streptozotocin-treated diabetic C57BL/6J mice (frozen sections)
As to the kind of experiment: Immunofluorescence staining of pancreas of diabetic mice. The settings on record: antibodies in SIP format, 2 μg/ml. The method, then: Type 1 diabetes is an autoimmune disease characterized by progressive destruction of pancreatic beta-cells. IL4 has been previously proposed as a potential medicament for preventing diabetes mellitus type 1 (Walz et al. 2002). Six week old C57BL/6J male mice were treated for 5 consecutive days with Streptozotocin (50 mg/kg by intraperitoneal [i.p.] injection). Blood glucose levels were recorded daily and mice were deemed diabetic if their non-fasted blood glucose levels were >300-400 mg/decilitre (dL). Pancreatic tissue was collected from the diabetic mice and snap frozen before cutting and staining. The staining procedure was performed according to the method set out in Pfaffen et al., Eur. J. Nucl. Med. Mol. Imaging (2010). Briefly, purified antibodies in SIP format (2 μg/ml), including antibody F8 (SEQ ID NO: 69), were added onto the sections and detected with a rabbit […] antibody (Dako). A further incubation with the fluorescently labelled goat anti-rabbit IgG Alexa Fluor 488 antibody (Life Technologies) was performed prior to imaging. Blood vessels and cell nuclei were detected using a rat anti-mouse CD31 antibody (BD Bioscience) followed incubation with a donkey anti-rat Alexa 594 antibody (Life Technologies), and DAPI, respectively. The filled white arrows in FIG. 19 indicate CD31^+ blood vessels. […]

T1 sequence (P01375 77-233 limits assumed, species assumed): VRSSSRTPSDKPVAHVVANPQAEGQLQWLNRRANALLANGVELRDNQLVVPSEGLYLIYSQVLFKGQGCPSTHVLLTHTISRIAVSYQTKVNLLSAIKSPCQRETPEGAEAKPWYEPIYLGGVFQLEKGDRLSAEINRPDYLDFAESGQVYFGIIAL
T2 sequence (P11276 33-2477): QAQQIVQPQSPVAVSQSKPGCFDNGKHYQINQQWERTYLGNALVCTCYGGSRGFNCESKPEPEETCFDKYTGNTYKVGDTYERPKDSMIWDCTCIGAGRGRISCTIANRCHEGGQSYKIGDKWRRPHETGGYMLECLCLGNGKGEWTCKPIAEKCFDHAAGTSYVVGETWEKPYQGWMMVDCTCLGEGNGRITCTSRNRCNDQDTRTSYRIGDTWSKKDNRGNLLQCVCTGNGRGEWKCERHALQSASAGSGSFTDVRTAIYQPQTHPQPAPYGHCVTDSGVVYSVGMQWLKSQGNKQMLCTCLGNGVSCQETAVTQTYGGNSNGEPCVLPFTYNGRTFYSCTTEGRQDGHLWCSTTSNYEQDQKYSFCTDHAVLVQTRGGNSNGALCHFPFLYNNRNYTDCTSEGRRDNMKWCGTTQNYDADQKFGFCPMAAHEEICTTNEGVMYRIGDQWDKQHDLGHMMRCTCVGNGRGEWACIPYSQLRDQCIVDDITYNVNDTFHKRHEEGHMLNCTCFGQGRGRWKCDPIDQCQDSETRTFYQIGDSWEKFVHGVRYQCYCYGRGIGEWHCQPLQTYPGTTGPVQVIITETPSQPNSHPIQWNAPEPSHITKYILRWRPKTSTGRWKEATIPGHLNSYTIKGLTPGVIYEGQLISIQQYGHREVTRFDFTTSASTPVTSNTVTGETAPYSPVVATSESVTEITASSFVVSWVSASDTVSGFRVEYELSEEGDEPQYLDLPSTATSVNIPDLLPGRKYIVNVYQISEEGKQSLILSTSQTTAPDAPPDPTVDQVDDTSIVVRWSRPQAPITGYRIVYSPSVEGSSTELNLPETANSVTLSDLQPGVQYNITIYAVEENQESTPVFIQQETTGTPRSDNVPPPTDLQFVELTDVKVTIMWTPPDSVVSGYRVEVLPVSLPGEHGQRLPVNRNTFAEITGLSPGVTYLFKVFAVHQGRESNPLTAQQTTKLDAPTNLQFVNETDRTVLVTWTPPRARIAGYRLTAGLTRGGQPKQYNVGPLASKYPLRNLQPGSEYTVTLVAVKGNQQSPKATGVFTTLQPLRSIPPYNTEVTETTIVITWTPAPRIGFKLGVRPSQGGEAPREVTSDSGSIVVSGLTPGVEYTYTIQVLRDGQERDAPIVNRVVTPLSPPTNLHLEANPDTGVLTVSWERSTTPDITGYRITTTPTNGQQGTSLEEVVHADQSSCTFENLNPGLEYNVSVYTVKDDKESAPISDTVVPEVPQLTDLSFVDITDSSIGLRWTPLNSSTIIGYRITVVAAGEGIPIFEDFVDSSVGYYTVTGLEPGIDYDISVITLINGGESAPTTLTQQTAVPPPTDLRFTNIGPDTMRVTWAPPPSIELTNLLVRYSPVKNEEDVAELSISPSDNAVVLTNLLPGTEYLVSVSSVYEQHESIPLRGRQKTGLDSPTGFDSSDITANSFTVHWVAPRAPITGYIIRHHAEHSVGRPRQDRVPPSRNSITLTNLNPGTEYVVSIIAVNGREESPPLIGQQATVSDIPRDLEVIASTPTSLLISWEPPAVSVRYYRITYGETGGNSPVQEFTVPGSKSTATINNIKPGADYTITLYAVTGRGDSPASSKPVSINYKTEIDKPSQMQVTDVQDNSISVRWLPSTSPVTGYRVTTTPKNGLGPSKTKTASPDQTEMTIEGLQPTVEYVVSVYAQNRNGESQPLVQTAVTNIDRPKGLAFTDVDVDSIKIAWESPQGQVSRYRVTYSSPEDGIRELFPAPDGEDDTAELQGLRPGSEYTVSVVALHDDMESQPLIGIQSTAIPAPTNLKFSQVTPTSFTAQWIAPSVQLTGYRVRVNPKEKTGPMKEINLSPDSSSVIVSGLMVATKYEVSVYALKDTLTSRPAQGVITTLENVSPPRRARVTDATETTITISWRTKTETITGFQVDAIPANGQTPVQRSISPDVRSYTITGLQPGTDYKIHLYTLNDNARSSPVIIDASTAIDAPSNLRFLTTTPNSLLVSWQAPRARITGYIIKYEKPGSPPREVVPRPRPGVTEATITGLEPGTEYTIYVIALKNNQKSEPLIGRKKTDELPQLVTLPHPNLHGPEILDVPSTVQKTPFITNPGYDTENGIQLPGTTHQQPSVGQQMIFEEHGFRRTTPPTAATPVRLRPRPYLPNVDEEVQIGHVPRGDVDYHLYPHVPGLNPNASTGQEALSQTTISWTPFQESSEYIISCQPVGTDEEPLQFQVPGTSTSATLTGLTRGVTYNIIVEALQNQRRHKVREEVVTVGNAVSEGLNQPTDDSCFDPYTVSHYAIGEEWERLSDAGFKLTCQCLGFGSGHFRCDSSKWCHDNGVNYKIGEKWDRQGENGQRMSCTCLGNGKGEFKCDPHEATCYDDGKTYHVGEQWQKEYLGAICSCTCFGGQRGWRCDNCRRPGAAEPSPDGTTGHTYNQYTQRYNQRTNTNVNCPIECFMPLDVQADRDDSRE

B1: muTNFR-Fc: extracellular part of the murine p75-TNF receptor appended at the N-terminus of a murine IgG1 Fc portion; murine version of Enbrel (protein)
chain: VPAQVVLTPYKPEPGYECQISQEYYDRKAQMCCAKCPPGQYVKHFCNKTSDTVCADCEASMYTQVWNQFRTCLSCSSSCTTDQVEIRACTKQQNRVCACEAGRYCALKTHSGSCRQCMRLSKCGPGFGVASSRAPNGNVLCKACAPGTFSDTTSSTDVCRPHRICSILAIPGNASTDAVCAPESPTLSAIPRTLYVSQPEPTRSQPLDQEPGPSQTPSILTSLGSTPIIEQSTKGGVPRDCGCKPCICTVPEVSSVFIFPPKPKDVLTITLTPKVTCVVVDISKDDPEVQFSWFVDDVEVHTAQTKPREEQFNSTFRSVSELPIMHQDWLNGKEFKCRVNSAAFPAPIEKTISKTKGRPKAPQVYTIPPPKEQMAKDKVSLTCMITDFFPEDITVEWQWNGQPAENYKNTQPIMDTDGSYFVYSKLNVQKSNWEAGNTFTCSVLHEGLHNHHTEKSLSHSPGK
Consider B1, for which the “ear draining lymph nodes (weight)” value in assay [1] and in assay [2] was “smaller” in each case. The “inhibition of TNF induced killing of mouse fibroblasts” value in the assay with TNF was “inhibits TNF induced killing of mouse fibroblasts”.

B2: SIP (F8): antibody F8 in SIP format (scFv fused to epsilon-CH4 domain of human IgE) (protein)
chain: EVQLLESGGGLVQPGGSLRLSCAASGFTFSLFTMSWVRQAPGKGLEWVSAISGSGGSTYYADSVKGRFTISRDNSKNTLYLQMNSLRAEDTAVYYCAKSTHLYLFDYWGQGTLVTVSSGGGGSGGGGSGGGGEIVLTQSPGTLSLSPGERATLSCRASQSVSMPFLAWYQQKPGQAPRLLIYGASSRATGIPDRFSGSGSGTDFTLTISRLEPEDFAVYYCQQMRGRPPTFGQGTKVEIKSGGSGGPRAAPEVYAFATPEWPGSRDKRTLACLIQNFMPEDISVQWLHNEVQLPDARHSTTQPRKTKGSGFFVFSRLEVTRAEWEQKDEFICRAVHEAASPSQTVQRAVSVNPESSRRGGC
On to B2, for which the “colocalization of staining with CD31+ blood vessels” value in assay [3] was “colocalization of EDA and CD31 in the pancreas of diabetic mice”.
